Laboratory results from patent publication US20250074980A1 (BRIGHAM AND WOMEN S HOSPITAL, published 2025).
Numbering of substitutions follows the chain as printed. Names and notes keep the numbering of the source. Blank lines part the entries; values can stand above or below the molecule they belong to.

Experiments:
[1] = target: T1, CEACAM1 on transfected HeLa cells (human, UniProt P13688 35-526); assay: flow cytometry, transfected HeLa
T1 construct: also called HeLa-CEACAM1; HeLa C1
T1 sequence: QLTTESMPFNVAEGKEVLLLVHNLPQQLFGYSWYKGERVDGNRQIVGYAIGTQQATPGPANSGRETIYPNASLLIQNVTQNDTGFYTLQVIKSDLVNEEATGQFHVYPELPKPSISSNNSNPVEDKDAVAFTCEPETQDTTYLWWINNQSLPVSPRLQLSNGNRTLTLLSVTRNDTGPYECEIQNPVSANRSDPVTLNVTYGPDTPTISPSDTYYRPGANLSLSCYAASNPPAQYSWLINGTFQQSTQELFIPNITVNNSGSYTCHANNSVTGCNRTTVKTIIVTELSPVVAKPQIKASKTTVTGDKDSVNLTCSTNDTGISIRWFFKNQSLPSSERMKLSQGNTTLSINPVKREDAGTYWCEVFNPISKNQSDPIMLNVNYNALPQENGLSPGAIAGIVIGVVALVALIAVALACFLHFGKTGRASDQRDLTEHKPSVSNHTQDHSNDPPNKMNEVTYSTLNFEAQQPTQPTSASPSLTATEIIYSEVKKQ

[2] = target: T2, CEACAM5 on transfected HeLa cells (human, UniProt P06731 35-685); assay: flow cytometry, transfected HeLa
T2 construct: whole, on cells; also called HeLa-CEACAM5; HeLa C5
T2 sequence (looked up): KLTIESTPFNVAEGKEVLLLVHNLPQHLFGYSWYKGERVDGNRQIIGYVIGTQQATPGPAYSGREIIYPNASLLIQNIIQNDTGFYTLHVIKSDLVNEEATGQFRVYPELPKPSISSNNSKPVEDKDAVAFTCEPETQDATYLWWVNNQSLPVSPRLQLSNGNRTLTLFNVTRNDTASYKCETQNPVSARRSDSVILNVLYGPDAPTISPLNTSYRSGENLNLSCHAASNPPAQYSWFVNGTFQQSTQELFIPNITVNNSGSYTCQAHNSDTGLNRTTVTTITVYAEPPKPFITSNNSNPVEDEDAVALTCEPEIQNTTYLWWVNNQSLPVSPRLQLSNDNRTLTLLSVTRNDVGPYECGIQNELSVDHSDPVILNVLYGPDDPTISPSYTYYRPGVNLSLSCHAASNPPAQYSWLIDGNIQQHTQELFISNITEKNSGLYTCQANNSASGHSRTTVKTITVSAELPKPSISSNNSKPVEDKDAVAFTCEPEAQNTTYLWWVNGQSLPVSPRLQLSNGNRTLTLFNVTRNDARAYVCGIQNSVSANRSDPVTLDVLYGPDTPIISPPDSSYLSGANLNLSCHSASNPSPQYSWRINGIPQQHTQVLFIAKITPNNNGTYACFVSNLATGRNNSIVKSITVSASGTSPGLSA

[3] = target: T3, CEACAM6 on transfected HeLa cells (human, UniProt P40199 35-320); assay: flow cytometry, transfected HeLa
T3 construct: whole, on cells; also called HeLa-CEACAM6; HeLa C6
T3 sequence (looked up): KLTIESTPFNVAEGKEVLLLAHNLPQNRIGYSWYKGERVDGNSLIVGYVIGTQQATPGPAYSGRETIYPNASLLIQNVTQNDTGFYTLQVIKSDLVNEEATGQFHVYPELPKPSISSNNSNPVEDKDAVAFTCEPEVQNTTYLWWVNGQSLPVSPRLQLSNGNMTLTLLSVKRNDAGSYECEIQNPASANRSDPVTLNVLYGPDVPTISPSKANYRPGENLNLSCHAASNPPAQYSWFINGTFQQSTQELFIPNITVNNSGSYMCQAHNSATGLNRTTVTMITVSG

[4] = target: T4, His-tagged CEACAM1 (human, UniProt P13688 35-428); assay: SPR single-cycle, purified IgG captured
T4 construct: 45 kDa SPR analyte; also called CEACAM1-HIS; CEACAM1 analyte
T4 sequence: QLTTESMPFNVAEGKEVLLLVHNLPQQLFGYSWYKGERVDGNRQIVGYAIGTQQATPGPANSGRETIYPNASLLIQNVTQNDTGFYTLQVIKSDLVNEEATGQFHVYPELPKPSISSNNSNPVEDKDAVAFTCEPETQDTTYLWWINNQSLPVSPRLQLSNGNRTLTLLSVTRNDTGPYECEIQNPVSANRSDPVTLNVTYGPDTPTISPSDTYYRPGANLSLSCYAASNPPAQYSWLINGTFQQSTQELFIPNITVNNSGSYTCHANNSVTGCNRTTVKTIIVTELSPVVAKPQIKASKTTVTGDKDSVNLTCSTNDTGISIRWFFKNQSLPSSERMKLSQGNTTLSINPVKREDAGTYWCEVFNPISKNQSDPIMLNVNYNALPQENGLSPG
How it was run: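 On a Biacore T200, purified IgG was captured on a Series S Protein A chip, and His-tagged CEACAM1 was passed over it as the analyte in single-cycle kinetics surface plasmon resonance at 25° C in HBS-P+ (pH 7.4). Reference-channel and blank-run signals were subtracted before fitting kon, koff and Kd, with relative KD calculated against the parent antibody assayed in the same experiment.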

[5] = target: T4, His-tagged CEACAM1; assay: SPR single-cycle, supernatant IgG captured
How it was run: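 Humanized, affinity-matured IgGs from crude supernatant (0.5 μg/ml in HBS-P+) captured on Protein A to ~100 RU. Single-cycle kinetics: CEACAM1 at three concentrations, 70–280 nM two-fold, 80 μl/min, 80 s association each, 150 s dissociation. Reference-channel and blank-run subtraction applied.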

[6] = target: T5, CEACAM3 on transfected HeLa cells (human, UniProt P40198 35-252); assay: flow cytometry, HeLa-CEACAM3 transfectants, % staining, stacked bars
T5 construct: whole, on cells; also called HeLa-CEACAM3; HeLa C3
T5 sequence (looked up): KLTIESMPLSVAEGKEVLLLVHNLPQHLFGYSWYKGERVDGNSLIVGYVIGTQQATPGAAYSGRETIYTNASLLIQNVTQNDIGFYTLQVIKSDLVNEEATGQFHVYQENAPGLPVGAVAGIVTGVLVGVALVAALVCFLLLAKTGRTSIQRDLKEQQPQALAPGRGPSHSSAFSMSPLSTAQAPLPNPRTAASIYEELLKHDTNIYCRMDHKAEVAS
Text: (§1) FIG. 11 illustrates the binding selectivity of different affinity-matured CEACAM1 antibodies. […] HELA cells were transfected with vector alone (HeLa-Neo) or vectors expressing CEACAM1, CEACAM3, CEACAM5, or CEACAM6, respectively, and stained with the indicated antibodies. […] MOPC=mouse IgG1 control antibody. Mouse antibodies as positive control for transfected CEACAM isoforms: Col-1=CEACAM3 and CEACAM5 antibody. 9A6=CEACAM6 antibody. T84.1=CEACAM cross-reactive antibody and T84.66=CEACAM5 antibody. Only 2nd FITC=No primary antibody, only secondary FITC conjugated antibody. […] Data for affinity-matured antibodies 9B3_8H3/Vκ8 S29A, 8H3_9B3/CP08_E05, and 8H3_9C2/CPO08_F05, as well as data for CEACAM8 antibody 80H3 were omitted from the FIG. due to an unusually high background signal.

[7] = target: T4, His-tagged CEACAM1; assay: SPR single-cycle, supernatant IgG captured; remark: listed apart in the source
How it was run: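 His-tagged CEACAM1 served as analyte over Protein A-captured IgG in single-cycle surface plasmon resonance on a Biacore T200, performed at 25° C in HBS-P+ (pH 7.4). The IgG was taken from supernatants of transiently PEI-transfected HEK EBNA cells grown in 6-well plates and harvested 5-7 days later. Relative KD, alongside fitted Kon, koff and Kd, was referenced to the parent antibody run in the same experiment.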

[8] = target: T2, CEACAM5 on transfected HeLa cells; assay: flow cytometry, HeLa-CEACAM5 transfectants, % staining, stacked bars
Text: as §1

[9] = target: T3, CEACAM6 on transfected HeLa cells; assay: flow cytometry, HeLa-CEACAM6 transfectants, % staining, stacked bars
Text: as §1

[10] = target: T4, His-tagged CEACAM1; assay: SPR multi-cycle
How it was run: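 On a Series S Protein A chip in a Biacore T200, purified antibody at 1 μg/ml was captured to ~75 RU, and His-tagged CEACAM1 analyte flowed at 80 μl/min in 2-fold dilutions (200 to 3.125 nM or 100 to 1.5625 nM) in HBS-P+ (pH 7.4) at 25° C. Association lasted 50 or 150 seconds and dissociation 100 seconds. The resulting multi-cycle kinetic sensorgrams yielded Kon, koff, Kd and relative KD.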

relative amount of cells bound [1]: 0.37
relative amount of cells bound [2]: 1.02
relative amount of cells bound [3]: 1.39
Molecule: irrelevant IgG4 antibody

Kd [10]: 198 nM
koff [10]: 0.0299 s⁻¹
kon [10]: 151000 M⁻¹ s⁻¹
relative KD [10]: 1.89
relative amount of cells bound [1]: 79.9
relative amount of cells bound [2]: 15.5
relative amount of cells bound [3]: 0.18
B4: VH0/Vκ0 N26Q (antibody, IgG4, name in Kabat numbering, V domains shown)
VH: EVQLVESGGDLVKPGGSLKLACAASGFIFSSHGMSWVRQTPDKRLEWVATISSGGTYTYYPDSVKGRFTISRDNDKNTLYLQMNSLKSEDTAMYYCARHDFDYDAAWFAYWGQGTLVTVSS
VL: QIVLTQSPALMSASPGVKVTMTCSAQSSVSYMYWYRQKPRSSPKPWIYLTSNLASGVPARFSGSGSGTSYSLTISSMEAEDAATYYCQQWSSNPPTFGSGTKLEIK
notes: aglycosylated chimeric, IgG4 (S241P), kappa

Second part, the molecule before the results:

B1: 9B3_9E5/CP08E05 (antibody, IgG4, V domains shown)
VH: EVQLLESGGGLVQPGGSLRLSCAASGFTFNAHAISWVRQAPGKGLEWVATISSGGTYTYYPDSVKGRFTISRDNSKNTLYLQMNSLKAEDTAMYYCARHGFDYDAAWFAYWGQGTLVTVSS
VL: EIVLTQSPATLSLSPGERATLSCRANSAVSYMYWYQQKPGQAPRPWIYLTSNRATGVPARFSGSGSGTDYTLTISSLEPEDFAVYYCQQWTTNPPTFGQGTKLEIK
notes: IgG4 (S241P), kappa
Kd [4]: 61 nM
koff [4]: 0.007 s⁻¹
kon [4]: 110000 M⁻¹ s⁻¹
relative KD to parent [4]: 7.8
Kd [5]: 67 nM
koff [5]: 0.0078 s⁻¹
kon [5]: 120000 M⁻¹ s⁻¹
relative KD to parent [5]: 8.3
binding result [6]: binds

B2: CP08H03/CP08E05 (antibody, IgG4, V domains shown)
VH: B1 VH with T28I, N30S, A31S, A33G, I34M, G100D, D104F, A105P, A106Y, Y110H
VL: B1 VL
notes: IgG4 (S241P), kappa
Kd [4]: 110 nM
koff [4]: 0.008 s⁻¹
kon [4]: 76000 M⁻¹ s⁻¹
relative KD to parent [4]: 4.5
Kd [7]: 120 nM
koff [7]: 0.0085 s⁻¹
kon [7]: 71000 M⁻¹ s⁻¹
relative KD to parent [7]: 4.6
binding result [6]: no binding
binding result [8]: no binding
binding result [9]: no binding

B3: CP09C02/CP08E05 (antibody, IgG4, V domains shown)
VH: B1 VH with G26E, N30S, A31D, I34M
VL: B1 VL
notes: IgG4 (S241P), kappa
Kd [4]: 72 nM
koff [4]: 0.007 s⁻¹
kon [4]: 97000 M⁻¹ s⁻¹
relative KD to parent [4]: 6.6
Kd [7]: 78 nM
koff [7]: 0.0075 s⁻¹
kon [7]: 96000 M⁻¹ s⁻¹
relative KD to parent [7]: 7.1
binding result [6]: binds
